Here are results for 19 molecules from US20160228506A1, “Compositions and Formulations for Prevention and Reduction of Tumorigenesis, Cancer Cell Proliferation and Invasion, and Methods of Production and Use Thereof in Cancer Treatment” (PRONUTRIA, INC., priority 2013, published 2016).

Sequences and labels used below:
B1: SEQID-00298 (AN): nutritive polypeptide naturally produced in Cow (protein, listed as Bos taurus)
chain: MGLSDGEWQLVLNAWGKVEADVAGHGQEVLIRLFTGHPETLEKFDKFKHLKTEAEMKASEDLKKHGNTVLTALGGILKKKGHHEAEVKHLAESHANKHKIPVKYLEFISDAIIHVLHAKHPSDFGADAQAAMSKALELFRNDMAAQYKVLGFHG
B2: SEQID-00338 (BS): nutritive polypeptide (protein, listed as Saccharomyces cerevisiae)
chain: MSSSESIRMVLIGPPGAGKGTQAPNLQERFHAAHLATGDMLRSQIAKGTQLGLEAKKIMDQGGLVSDDIMVNMIKDELTNNPACKNGFILDGFPRTIPQAEKLDQMLKEQGTPLEKAIELKVDDELLVARITGRLIHPASGRSYHKIFNPPKEDMKDDVTGEALVQRSDDNADALKKRLAAYHAQTEPIVDFYKKTGIWAGVDASQPPATVWADILNKLGKD
modifications: source: /note="strain ATCC 204508 / S288c"
B3: SEQID-00236: nutritive polypeptide (protein, listed as Bos taurus)
chain: ALQEAHQQTLDDLQAEEDKVNTLTKAKTKLEQQVDDLEGSLEQEKKLRMDLERAKRKLEGDLKLA
B4: SEQID-00001: nutritive polypeptide (protein, listed as Gallus gallus)
chain: MGSIGAASMEFCFDVFKELKVHHANENIFYCPIAIMSALAMVYLGAKDSTRTQINKVVRFDKLPGFGDSIEAQCGTSVNVHSSLRDILNQITKPNDVYSFSLASRLYAEERYPILPEYLQCVKELYRGGLEPINFQTAADQARELINSWVESQTNGIIRNVLQPSSVDSQTAMVLVNAIVFKGLWEKAFKDEDTQAMPFRVTEQESKPVQMMYQIGLFRVASMASEKMKILELPFASGTMSMLVLLPDEVSGLEQLESIINFEKLTEWTSSNVMEERKIKVYLPRMKMEEKYNLTSVLMAMGITDVFSSSANLSGISSAESLKISQAVHAAHAEINEAGREVVGSAEAGVDAASVSEEFRADHPFLFCIKHIATNAVLFFGRCVSP
B5: SEQID-00346: nutritive polypeptide (protein)
chain: MYYDADANLDLLAGKTIAIVGYGSQGHAHALNLKDSGMNVIVGLYPGSKSATKAKDAGLTVYPVDEAAKIADLIMILLPDEVQKTVYKNEIEPNLSEGKTLAFAHGFNIHFGQVVPPENVDVIMVAPKGPGHLVRRTYQEGQGVPCLFAVYQDASGQARDRAMAYAKGIGGTRGGILETTFREETETDLFGEQAVLCGGLSALIKAGFETLVEAGYQPELAYFECLHEVKLIVDLVVEGGLAQMRDSISNTAEYGDYTRGPRVITDATRAEMRKILKEIQTGQFAREFVLENQSGKAGFTAMRRQEAEHPIEEVGHDLRAMFSWLKKKA
modifications: Arthrospira platensis NIES-39
B6: SEQID-00354: nutritive polypeptide (protein)
chain: MSLSNKLTLDKLDVKGKRVVMRVDFNVPMKNNQITNNQRIKAAVPSIKYCLDSGAKSVVLMSHLGRPDGVPMPDKYSLQPVAVELKSLLGKDVLFLKDCVGPEVEKACADPAAGSVILLENLRFHVEEEGKGKDASGNKVKAEPTKIEAFRASLSKLGDVYVNDAFGTAHRAHSSMVGVNLPKKAGGFLMKKELNYFAKALESPERPFLAILGGAKVADKIQLISNMLDKVNEMIIGGGMAFTFLKVLNNMEIGTSLFDEEGSKIVKDLMSKADKNGVKITLPVDFVTADKFDENAKTGQATVASGIPVGWMGLDCGPESSKKYAEAVARAKQIVWNGPVGVFEWEAFARGTKALMDEVVKATSRGCITIIGGGDTATCCAKWNTEDKVSHVSTGGGASLELLEGKVLPGVDALSSV
modifications: Ovis aries
B7: SEQID-00343: nutritive polypeptide (protein)
chain: MATLIAPSHHSRVEDAEALRNAFKGWGADDKAIIAILGHRNVHQRQEIRKAYEEIYQEDLIKRLESEISGDFERAMYRWMLQPADRDAVLVNVAIKNGTKDYHVIAEIACVLSAEELLAVRRAYHRRYKCSLEEDVAANTTGNLRQLLVGLVTSYRYEGDEINVKFSQTEANVLHESVKEKKGNSEEVIRILTTRSKTQLVATFNRYRDEHGISISKKLLDQTSDDFHKVLHTAIRCINDHKKYYEKVLRNAVKKFGTDEDGLSRVIVTRAEKDLKDIKELYYKRNSVHLEDEVSKETSGDYKKFLLTLLGK
modifications: Glycine max
B8: SEQID-00284: nutritive polypeptide (protein, listed as Arabidopsis thaliana)
chain: KLEHGVHVVSGTPGRVCDMIKRRSLRTRAIKLLILDESDEMLSRGFKDQIYDVYRYLPPDLQVCLVSATLPHEILEMTSKFMTEPVKILVKRDELTLEGIKQFFVAVEKEEWK
B9: SEQID-00345: nutritive polypeptide (protein)
chain: MNTLDLQNQRILVTGGAGFLGKQVIDQLLKAGAKSENISVPRSHNCDLRNLEACQQAAKGQDIIIHLAAHVGGIGLNQVKPAELFYDNLMMGTQLIHSAYQAGVKKFVCVGTICAYPKFTPVPFQEDDLWNGYPEETNAPYGIAKKALLVQLQAYRQQYGFNGIYLLPVNLYGPEDNFNPKSSHVIPALVRKVYEAQQRGDKQLPVWGDGSPSREFLYSTDAARGIVMATQHYDEPDPVNLGTNSEVTIRDLVELICELMEFQGEIVWETDKPNGQPRRCLDTNRAKERFGFVAEVEFRQGLKNTIDWYRQNPDL
modifications: Arthrospira platensis NIES-39
B10: SEQID-00633: protein of the 168 nutritive polypeptide library (protein, listed as Saccharomyces cerevisiae)
chain: MSDAGRKGFGEKASEALKPDSQKSYAEQGKEYITDKADKVAGKVQPEDNKGVFQGVHDSAEKGKDNAEGQGESLADQARDYMGAAKSKLNDAVEYVSGRVHGEEDPTKK
modifications: source: /note="strain ATCC 204508 / S288c"
notes: protein of the 168 nutritive polypeptide library
B11: SEQID-00638: protein of the 168 nutritive polypeptide library (protein)
chain: MKTNELVQRVAEKAKLPKKRVRAILDLAFSAISEEIESGQPVVVRGLGKFTLKEQPARTKTNPETGETTEVPARTVVNFRVIKPSKDKEEADS
modifications: Arthrospira platensis NIES-39
notes: as for B10
B12: SEQID-00643: protein of the 168 nutritive polypeptide library (protein, listed as Linum usitatissimum)
chain: MVGCGRIGKLLLQRLKPFGCNLLYHDRLKMEPELETQIGAKFEEDVDAMLPKCDVVVINTPLTEKTKGMFDKDRILKMKKG
B13: SEQID-00641: protein of the 168 nutritive polypeptide library (protein, listed as Saccharomyces cerevisiae)
chain: MLPRSALARSLQLQRGVAARFYSEGSTGTPRGSGSEDSFVKRERATEDFFVRQREKEQLRHLKEQLEKQRKKIDSLENKIDSMTK
modifications: source: /note="strain ATCC 204508 / S288c"
notes: as for B10
B14: SEQID-00642: protein of the 168 nutritive polypeptide library (protein, listed as Saccharomyces cerevisiae)
chain: MADQENSPLHTVGFDARFPQQNQTKHCWQSYVDYHKCVNMKGEDFAPCKVFWKTYNALCPLDWIEKWDDQREKGIFAGDINSD
modifications: source: /note="strain ATCC 204508 / S288c"
notes: as for B10
B15: SEQID-00645: protein of the 168 nutritive polypeptide library (protein, listed as Saccharomyces cerevisiae)
chain: MAYTSHLSSKTGLHFGRLSLRSLTAYAPNLMLWGGASMLGLFVFTEGWPKFQDTLYKKIPLLGPTLEDHTPPEDKPN
modifications: source: /note="strain ATCC 204508 / S288c"
notes: as for B10
B16: SEQID-00648: protein of the 168 nutritive polypeptide library (protein)
chain: MKRVHLPTDRETGKFRGFAFVEMNTEEEEIHAIEELDGAEWMGREIRVNLARPREDKKPSDRGGRKPRY
modifications: Arthrospira platensis C1
notes: as for B10
B17: SEQID-00634: protein of the 168 nutritive polypeptide library (protein, listed as Saccharomyces cerevisiae)
chain: MPPKQQLSKAAKAAAALAGGKKSKKKWSKKSMKDRAQHAVILDQEKYDRILKEVPTYRYVSVSVLVDRLKIGGSLARIALRHLEKEGIIKPISKHSKQAIYTRATASE
modifications: source: /note="strain ATCC 204508 / S288c"
notes: as for B10
B18: SEQID-00632: protein of the 168 nutritive polypeptide library (protein, listed as Saccharomyces cerevisiae)
chain: MSTVTKYFYKGENTDLIVFAASEELVDEYLKNPSIGKLSEVVELFEVFTPQDGRGAEGELGAASKAQVENEFGKGKKIEEVIDLILRNGKPNSTTSSLKTKGGNAGTKAYN
modifications: source: /note="strain ATCC 204508 / S288c"
notes: as for B10
B19: SEQID-00628: protein of the 168 nutritive polypeptide library (protein, listed as Saccharomyces cerevisiae)
chain: MSDFQKEKVEEQEQQQQQIIKIRITLTSTKVKQLENVSSNIVKNAEQHNLVKKGPVRLPTKVLKISTRKTPNGEGSKTWETYEMRIHKRYIDLEAPVQIVKRITQITIEPGVDVEVVVASN
modifications: source: /note="strain ATCC 204508 / S288c"
notes: as for B10

One series in a line: Intact half-life during simulated gastric fluid (SGF) digestion. The following applies: SGF pH 1.5, pepsin:polypeptide 1:20 w/w, 37° C.; intact protein.
Protocol: In this experiment the nutritive polypeptide was exposed to a series of proteases that are active in the stomach (pepsin) and intestine (trypsin and chymotrypsin), and the presence of intact protein was measured over time. Specifically, the nutritive polypeptide was first treated at a concentration of 2 g/L with simulated gastric fluid (SGF) (0.03 M NaCl, titrated with HCl to pH 1.5 with a final pepsin:polypeptide ratio of 1:20 w/w) at 37° C. Time points were sampled from the reaction and quenched by addition of 0.2 M Na2CO3. […] Time points were sampled from the reaction and quenched by addition of Trypsin/Chymotrypsin Inhibitor (Sigma) solution until 240 min.
Time point samples were analyzed for intact protein by chip electrophoresis, polyacrylamide gel electrophoresis, or western blot. For chip electrophoresis (Labchip GX II), samples were analyzed using a HT Low MW Protein Express LabChip® Kit (following the manufacturer's protocol). A protein ladder was loaded every 12 samples for molecular weight determination (kDa) and quantification. For polyacrylamide gel electrophoresis, samples (1 μg) were separated on a NuPAGE® Novex® Bis-Tris Precast gel (Life Technologies) according to the manufacturer's protocol. The gel was stained using SimplyBlue™ SafeStain (Invitrogen) and imaged using a Chemidoc XRS+ (BioRad) or transferred onto nitrocellulose membranes using the iBlot® Dry Blotting System (Life Technologies) and iBlot® Western Detection Kit (Life Technologies) according to the manufacturer's protocol. Proteins were detected by blotting with Anti-His [C-term]-HRP antibody diluted 3:5000 in Blok™-PO Blocking Buffer using the SNAP I.d.® Protein Detection System (Millipore) according to the manufacturer's protocol. Blots were treated with Luminata Classico Western HRP Substrate (Millipore) according to the manufacturer's protocol and imaged using chemiluminescent detection on the Molecular Imager® Gel Doc™ XR+ System (Bio-Rad). Quantification of intact protein was determined by densitometry using ImageLab (BioRad). For all analysis methods the relative concentration of the polypeptide at each time point (if detected) was plotted overtime and fit to an exponential curve to calculate the intact half-life.
Specifically, the t=0 (enzyme-free control) and t=2 min samples from the SGF digest were analyzed for intact protein as described by chip electrophoresis, SDS-PAGE, western blot, and/or LC-MS/MS. Relative quantities of polypeptides at each time point were determined and the percentage of intact protein remaining at t=2 was determined. Intact half-life values determined using this method are reported as greater or less than 2 min to indicate more or less than 50% of the protein remained intact at t=2 min, respectively.
Regarding B1, the “SGF Half-life (t½)” value is 18 s.

On to B2, for which the “SGF Half-life (t½)” value is 12 s.

On to B3, for which the “SGF Half-life (t½)” value is 600 s.

With B4, the “SGF Half-life (t½)” value is 300 s.

Take B5: the “SGF Half-life (t½)” value was 12 s.

With B6, the “SGF Half-life (t½)” value was 12 s.

Regarding B7, the “SGF Half-life (t½)” value is 18 s.

As to B8, the “SGF Half-life (t½)” value is 60 s.

For the molecule B9, the “SGF Half-life (t½)” value is 48 s.

A further series is described as follows: SGF digest of 168 nutritive polypeptide library, intact protein by LC-MS/MS. It counts as in vitro ADME. To be noted: 168 nutritive polypeptide library SGF digest, LC-MS/MS spectral counts. The gist of the method:
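Spectral-count ratios (10 min vs 0 min, peak gel fraction plus neighbours) give the percent of each protein left intact after SGF digestion of a pooled, IMAC-purified 168-member recombinant library. Samples were gel-fractionated, trypsinised in-gel and run on Orbitrap nanoLC-MS/MS, requiring two unique peptides at 1% FDR.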
For the molecule B10, the “% Intact Protein at 10 min” value was 92.1%.

Consider B11, for which the “% Intact Protein at 10 min” value amounted to 0%.

B12: the “% Intact Protein at 10 min” value turned out to be 13.6%.

With B13, the “% Intact Protein at 10 min” value is given as 21.2%.

Take B14: the “% Intact Protein at 10 min” value stood at 75%.

B15: the “% Intact Protein at 10 min” value came out at 0%.

Take B16: the “% Intact Protein at 10 min” value worked out at 39.5%.

Turning to B17, the “% Intact Protein at 10 min” value is given as 36.8%.

As for B18, the “% Intact Protein at 10 min” value is 1.2%.

Regarding B19, the “% Intact Protein at 10 min” value is on record as 0%.
